Results from the supplement of paper PMC7877785.
± gives the uncertainty stated by the source.

Experiment: self-splicing fitness, log relative to wild type (ln ratio); higher = more splicing; Tetrahymena group I intron in knt gene, E. coli kanamycin selection, DiMSum; sequences stand for … in CUCUCU…GGAGGGAAAAGUUAUCAGGCAUGCACCUGGUAGCUAGUCUUUAAACCAAUAGAUUGCAUCGGUUUAAAAGGCAAGACCGUCAAAUUGCGGGAAAGGGGUCAACAGCCGUUCAGUACCAAGUCUCAGGGGAAACUUUGAGAUGGCCUUGCAAAGGGUAUGGUAAUAAGCUGACGGACAUGGUCCUAACCACGCAGCCAAGUCCUAAGUCAACAGAUCUUCUGUUGAUAUGGAUGCAGUUCACAGACUAAAUGUCGGUCGGGGAAGAUGUAUUCUUCUCAUAAGAUAUAGUCGGACCUCUCCUUAAUGGGAGCUAGCGGAUGAAGUGAUGCAACACUGGAGCCGCUGGGAACUAAUUUGUAUGCGAAAGUAUAUUGAUUAGUUUUGGAGUACUCGUGGUCG
Summary of the method: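 Six replicate transformations of E. coli BL21(DE3) with a pET-22b(+) library were grown overnight at 37°C or 30°C. The library randomised all eight P1ex-region intron nucleotides, the intron lying in the knt kanamycin-resistance gene, and plates were LB agar with or without 25 μg/mL kanamycin plus 100 μg/mL carbenicillin, 50 μM IPTG and 0.2% rhamnose. Pooled colonies were amplicon-sequenced on an Illumina HiSeq 2500, and fitness is the DiMSum error-weighted combination of wild-type-normalised replicate fold changes, kanamycin versus none.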

AUGGAGCAAUAUUACGGCUG
self-splicing fitness (ln) (30 °C): -2.48 ± 0.17
self-splicing fitness (ln) (37 °C): -1.84 ± 0.34

GCACAGCAAUAUUACGACUG
self-splicing fitness (ln) (30 °C): -1.14 ± 0.094
self-splicing fitness (ln) (37 °C): -0.12 ± 0.093

UGAGAGCAAUAUUACGCCUU
self-splicing fitness (ln) (30 °C): -3 ± 0.18
self-splicing fitness (ln) (37 °C): -3.73 ± 0.34

GGCGAGCAAUAUUACGUGGU
self-splicing fitness (ln) (30 °C): -4.31 ± 0.27
self-splicing fitness (ln) (37 °C): -1.77 ± 0.16

GUAGAGCAAUAUUACGAGAG
self-splicing fitness (ln) (37 °C): -2.05 ± 0.36

GCCAAGCAAUAUUACGGACG
self-splicing fitness (ln) (30 °C): -1.6 ± 0.14
self-splicing fitness (ln) (37 °C): 0.0859 ± 0.18

AGCGAGCAAUAUUACGUAGG
self-splicing fitness (ln) (30 °C): -3.4 ± 0.35
self-splicing fitness (ln) (37 °C): -2.17 ± 0.22

UGUGAGCAAUAUUACGCUUG
self-splicing fitness (ln) (30 °C): -3.29 ± 0.31
self-splicing fitness (ln) (37 °C): -3.13 ± 0.47

AGCCAGCAAUAUUACGUUAC
self-splicing fitness (ln) (30 °C): -4.34 ± 0.31
self-splicing fitness (ln) (37 °C): -1.88 ± 0.21

ACGAAGCAAUAUUACGCAGG
self-splicing fitness (ln) (30 °C): -1.67 ± 0.11
self-splicing fitness (ln) (37 °C): -1.44 ± 0.12

ACCGAGCAAUAUUACGGGAA
self-splicing fitness (ln) (30 °C): -2.52 ± 0.21
self-splicing fitness (ln) (37 °C): -2.56 ± 0.22

GCCCAGCAAUAUUACGGCUG
self-splicing fitness (ln) (30 °C): -4.14 ± 0.2
self-splicing fitness (ln) (37 °C): -2.22 ± 0.15

UAGCAGCAAUAUUACGGGCU
self-splicing fitness (ln) (30 °C): -3.39 ± 0.15
self-splicing fitness (ln) (37 °C): -1.08 ± 0.12

GCAAAGCAAUAUUACGUAAC
self-splicing fitness (ln) (30 °C): -1.67 ± 0.12
self-splicing fitness (ln) (37 °C): -0.338 ± 0.15

UCGUAGCAAUAUUACGCGCA
self-splicing fitness (ln) (30 °C): -0.601 ± 0.11
self-splicing fitness (ln) (37 °C): -0.0623 ± 0.15

ACUCAGCAAUAUUACGGCAG
self-splicing fitness (ln) (30 °C): -1.52 ± 0.089
self-splicing fitness (ln) (37 °C): -0.501 ± 0.093

CAAGAGCAAUAUUACGUAUU
self-splicing fitness (ln) (30 °C): -3.55 ± 0.23
self-splicing fitness (ln) (37 °C): -1.83 ± 0.19

AGUAAGCAAUAUUACGCGAU
self-splicing fitness (ln) (30 °C): -3.74 ± 0.18
self-splicing fitness (ln) (37 °C): -2.29 ± 0.18

GUAAAGCAAUAUUACGGCCC
self-splicing fitness (ln) (30 °C): 0.25 ± 0.16
self-splicing fitness (ln) (37 °C): 0.443 ± 0.24

UAGGAGCAAUAUUACGUACU
self-splicing fitness (ln) (30 °C): -2.72 ± 0.31
self-splicing fitness (ln) (37 °C): -1.73 ± 0.32

GGUGAGCAAUAUUACGUCCG
self-splicing fitness (ln) (30 °C): -1.13 ± 0.21
self-splicing fitness (ln) (37 °C): -0.66 ± 0.29

AAAAAGCAAUAUUACGAAGU
self-splicing fitness (ln) (30 °C): -2.08 ± 0.13
self-splicing fitness (ln) (37 °C): -0.998 ± 0.15

CUCAAGCAAUAUUACGCAUA
self-splicing fitness (ln) (30 °C): -3.29 ± 0.22
self-splicing fitness (ln) (37 °C): -3.07 ± 0.34

CUUUAGCAAUAUUACGGGCC
self-splicing fitness (ln) (30 °C): -3.32 ± 0.16
self-splicing fitness (ln) (37 °C): -2.64 ± 0.21

UCAGAGCAAUAUUACGCGAA
self-splicing fitness (ln) (30 °C): -2.61 ± 0.21
self-splicing fitness (ln) (37 °C): -3.1 ± 0.29

AGAGAGCAAUAUUACGAGUU
self-splicing fitness (ln) (30 °C): -4.21 ± 0.3
self-splicing fitness (ln) (37 °C): -2.41 ± 0.2

GGUCAGCAAUAUUACGUUAA
self-splicing fitness (ln) (30 °C): -1.4 ± 0.099
self-splicing fitness (ln) (37 °C): -0.249 ± 0.088

GAUGAGCAAUAUUACGAAAU
self-splicing fitness (ln) (30 °C): -1.53 ± 0.18
self-splicing fitness (ln) (37 °C): -1.92 ± 0.37

ACUCAGCAAUAUUACGAUCC
self-splicing fitness (ln) (30 °C): -3.06 ± 0.37

CACUAGCAAUAUUACGAGUC
self-splicing fitness (ln) (30 °C): -2.82 ± 0.21
self-splicing fitness (ln) (37 °C): -2.01 ± 0.19

AAGUAGCAAUAUUACGAGGU
self-splicing fitness (ln) (30 °C): -1.94 ± 0.13
self-splicing fitness (ln) (37 °C): -1.97 ± 0.17

GCACAGCAAUAUUACGUCUA
self-splicing fitness (ln) (30 °C): -0.8 ± 0.06
self-splicing fitness (ln) (37 °C): -0.367 ± 0.063

CCUGAGCAAUAUUACGGAUC
self-splicing fitness (ln) (30 °C): -2.1 ± 0.17
self-splicing fitness (ln) (37 °C): -2.53 ± 0.22

GGCCAGCAAUAUUACGUAAU
self-splicing fitness (ln) (30 °C): -0.304 ± 0.098
self-splicing fitness (ln) (37 °C): -0.62 ± 0.098

CCGCAGCAAUAUUACGUCUA
self-splicing fitness (ln) (30 °C): -1.79 ± 0.32
self-splicing fitness (ln) (37 °C): -3 ± 0.3

AUUUAGCAAUAUUACGCACG
self-splicing fitness (ln) (30 °C): -1.9 ± 0.28
self-splicing fitness (ln) (37 °C): -0.778 ± 0.2

ACUCAGCAAUAUUACGACCG
self-splicing fitness (ln) (30 °C): -0.553 ± 0.16
self-splicing fitness (ln) (37 °C): -1 ± 0.15

UGUUAGCAAUAUUACGAGGC
self-splicing fitness (ln) (30 °C): -3.73 ± 0.43
self-splicing fitness (ln) (37 °C): -2.67 ± 0.38

ACCGAGCAAUAUUACGGGAG
self-splicing fitness (ln) (30 °C): -3.54 ± 0.2
self-splicing fitness (ln) (37 °C): -2.69 ± 0.3

UAGCAGCAAUAUUACGAAAA
self-splicing fitness (ln) (30 °C): -2.56 ± 0.25
self-splicing fitness (ln) (37 °C): -1.27 ± 0.2

CCAGAGCAAUAUUACGCCUC
self-splicing fitness (ln) (30 °C): -3.12 ± 0.31
self-splicing fitness (ln) (37 °C): 0.134 ± 0.26

CAAUAGCAAUAUUACGUAAC
self-splicing fitness (ln) (30 °C): -3.94 ± 0.35
self-splicing fitness (ln) (37 °C): -3.27 ± 0.43

AGAGAGCAAUAUUACGUUAG
self-splicing fitness (ln) (30 °C): -2.77 ± 0.19
self-splicing fitness (ln) (37 °C): -2.45 ± 0.29

CACGAGCAAUAUUACGAUUC
self-splicing fitness (ln) (30 °C): -3.44 ± 0.15
self-splicing fitness (ln) (37 °C): -2.49 ± 0.17

AAUUAGCAAUAUUACGCAAU
self-splicing fitness (ln) (30 °C): -2.4 ± 0.13
self-splicing fitness (ln) (37 °C): -1.74 ± 0.17

ACGGAGCAAUAUUACGGACG
self-splicing fitness (ln) (30 °C): -1.96 ± 0.19
self-splicing fitness (ln) (37 °C): -1.17 ± 0.22

GCUAAGCAAUAUUACGGGGA
self-splicing fitness (ln) (30 °C): -1.74 ± 0.17
self-splicing fitness (ln) (37 °C): -1.55 ± 0.21

GCUGAGCAAUAUUACGCAUC
self-splicing fitness (ln) (30 °C): -1.72 ± 0.26
self-splicing fitness (ln) (37 °C): -0.374 ± 0.33
